The record followed here is paper PMC8622166 (2021).

For orientation: Kd means the concentration at which binding is half-saturated. Read a low Kd as tighter binding. In general, koff refers to the first-order rate constant of dissociation. The low end stands for a long-lived complex, the high end for a short-lived complex.

Positions count from the first letter of the chain named. Numbers in names are those of the source. Read-outs that look alike come from different tables or passages of the source.

Experiment [1] addresses T1, non-isoprenylated RAC1 full-length (RAC1^FL) (human, UniProt P63000 1-192). In words: FP; mdGDP-bound RAC1.
In experiment [2] the target is T1, non-isoprenylated RAC1 full-length …. The experiment can be described thus: FP.
The target is the same in experiment [3]. The experiment can be described thus: stopped-flow.
Experiment [4] shares this target. In words: kinetic, koff/kon.
Experiment [5] shares this target. The experiment can be described thus: kinetic, koff/kon. This is another data set of the same source.
Experiment [6] has the same target. In words: stopped-flow. The source holds these as a separate data set.

B1: GDI1^ΔN25 (domain or fragment)
chain: NYKPPAQKSIQEIQELDKDDESLRKYKEALLGRVAVSADPNVPNVVVTGLTLVCSSAPGPLELDLTGDLESFKKQSFVLKEGVEYRIKISFRVNREIVSGMKYIQHTYRKGVKIDKTDYMVGSYGPRAEEYEFLTPVEEAPKGMLARGSYSIKSRFTDDDKTDHLSWEWNLTIKKDWKD
In experiment [1], B1 had a Kd of 174 µM.

B2: GDI1^E121K (natural protein)
chain: MAEQEPTAEQLAQIAAENEEDEHSVNYKPPAQKSIQEIQELDKDDESLRKYKEALLGRVAVSADPNVPNVVVTGLTLVCSSAPGPLELDLTGDLESFKKQSFVLKEGVEYRIKISFRVNRKIVSGMKYIQHTYRKGVKIDKTDYMVGSYGPRAEEYEFLTPVEEAPKGMLARGSYSIKSRFTDDDKTDHLSWEWNLTIKKDWKD
B2 yielded a Kd in experiment [1] of 14 µM.

B3: GDI1 (RHOGDI1), wild type (natural protein)
chain: B2 chain with K121E
As for B3, the Kd in experiment [1] turned out to be 1.2 µM; in experiment [2] it was 0.96 µM; in experiment [4], 1.03 µM. For the same molecule, in experiment [3], the koff was 0.34 s⁻¹.

B4: GDI1^2E>2K (E163K and E164K) (natural protein)
chain: B2 chain with K121E, E163K, E164K
B4 registered a Kd in experiment [1] of 117 µM.

B5: GDI1^ΔC6 (domain or fragment)
chain: MAEQEPTAEQLAQIAAENEEDEHSVNYKPPAQKSIQEIQELDKDDESLRKYKEALLGRVAVSADPNVPNVVVTGLTLVCSSAPGPLELDLTGDLESFKKQSFVLKEGVEYRIKISFRVNREIVSGMKYIQHTYRKGVKIDKTDYMVGSYGPRAEEYEFLTPVEEAPKGMLARGSYSIKSRFTDDDKTDHLSWEWNLTI
Regarding B5, the Kd in experiment [5] stood at 21.7 µM; in experiment [1], 29 µM. Also, in experiment [6], the koff was 0.59 s⁻¹.

B6: GDI1^ΔN15 (domain or fragment)
chain: AENEEDEHSVNYKPPAQKSIQEIQELDKDDESLRKYKEALLGRVAVSADPNVPNVVVTGLTLVCSSAPGPLELDLTGDLESFKKQSFVLKEGVEYRIKISFRVNREIVSGMKYIQHTYRKGVKIDKTDYMVGSYGPRAEEYEFLTPVEEAPKGMLARGSYSIKSRFTDDDKTDHLSWEWNLTIKKDWKD
On to B6, for which the Kd was 16.8 µM in experiment [5] and 102 µM in experiment [1]. Further, the koff in experiment [6] came to 0.54 s⁻¹.
